For the test, the target named is T1, dimeric cMet-Fc recombinant protein (rh cMet-Fc, R&D Systems ref. 358-MT/CF) (human, UniProt P08581 25-932).
T1 construct: extracellular domain; Bought reagent; also called cMet extracellular domain fusion protein; recombinant human cMet protein; not shown: Fc part
Description: ELISA on coated dimeric cMet-Fc. The procedure: Obtained hybridomas were initially screened by ELISA on the dimeric cMet-Fc recombinant protein. Briefly, the recombinant human cMet protein was coated overnight at 4° C. to Immulon II 96-well plates and, after a 1 h blocking step with a 0.5% gelatine solution, pure hybridoma supernatant was added for an additional 1 h at 37° C. Then plates were washed and a goat anti-mouse (Jackson) specific IgG HRP was added for 1 h at 37° C. Reaction development was performed using the TMB substrate solution. Then a second screen was performed by FACS analysis on […] cell line, that express moderate to high levels of cMet, to be sure that the produced antibodies will be able to also recognize the native receptor on tumor cells. For that purpose 2×10⁵ cells were incubated with either 10 μg/ml of m205A5, m227D3 or m10D₉ (IgG1 isotype control Mab) for 20 min at 4° C. After 3 washing in phosphate-buffered saline (PBS) supplemented with 1% BSA and 0.01% NaN₃, cells were incubated with secondary antibody Goat anti-mouse Alexa 488 (dilution 1/500) for 20 minutes at 4° C. After 3 additional washings in PBS supplemented with 1% BSA and 0.1% NaN₃, cells were analyzed by FACS (Facscalibur, Becton-Dickinson). At least 5000 cells were assessed to calculate the mean value of fluorescence intensity.

Experimental findings from patent publication US20130102494A1 (PIERRE FABRE MEDICAMENT, published 2013) are described below.

T1 sequence (P08581 25-932): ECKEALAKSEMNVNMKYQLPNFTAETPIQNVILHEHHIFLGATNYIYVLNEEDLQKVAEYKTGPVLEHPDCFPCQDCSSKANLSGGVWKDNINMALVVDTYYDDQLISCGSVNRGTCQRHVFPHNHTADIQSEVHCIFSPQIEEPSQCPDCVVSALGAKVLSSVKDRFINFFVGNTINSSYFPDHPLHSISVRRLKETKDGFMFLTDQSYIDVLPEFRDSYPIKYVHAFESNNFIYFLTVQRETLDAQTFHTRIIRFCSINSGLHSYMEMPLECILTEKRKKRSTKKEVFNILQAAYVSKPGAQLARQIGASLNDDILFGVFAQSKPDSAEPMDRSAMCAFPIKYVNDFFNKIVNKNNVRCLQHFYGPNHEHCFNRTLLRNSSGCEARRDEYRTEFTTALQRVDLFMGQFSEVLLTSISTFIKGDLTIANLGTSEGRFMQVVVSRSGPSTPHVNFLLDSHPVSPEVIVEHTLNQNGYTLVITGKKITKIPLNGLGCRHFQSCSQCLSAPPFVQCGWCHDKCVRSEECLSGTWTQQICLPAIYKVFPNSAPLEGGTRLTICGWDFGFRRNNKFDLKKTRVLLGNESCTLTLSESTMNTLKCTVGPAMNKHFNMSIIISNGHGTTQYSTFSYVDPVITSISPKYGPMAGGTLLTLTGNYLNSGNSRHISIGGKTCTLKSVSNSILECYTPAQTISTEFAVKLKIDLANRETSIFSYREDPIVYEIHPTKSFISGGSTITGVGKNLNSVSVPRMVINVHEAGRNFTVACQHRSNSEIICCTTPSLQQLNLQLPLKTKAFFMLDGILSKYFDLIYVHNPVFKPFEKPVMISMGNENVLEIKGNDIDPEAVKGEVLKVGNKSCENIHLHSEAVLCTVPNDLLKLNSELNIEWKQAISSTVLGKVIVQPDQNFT

B1: 205A5 monoclonal antibody (murine, secreted by hybridoma CNCM I-4246) (antibody, V domains shown)
VH: QVQLKQSGPGLVQPSQSLSITCTVSGFSLTDYGIQWVRQSPGQGLEWLGVIWRGGSTDYNAPFMSRLSITKDNSKSQVFFRMNSLQADDTAIYYCATSYYRYDGPFTYWGQGTLVTVSA
VL: NIVLTQSPASLAVSLGQRATISCRASESVDSNGNSFIHWYQQKPGQPPKLLIYVASKLESGVPARFSGSGSRTDFTLTIDPVEAEDVATYYCQQNNEYPLTFGAGTKLELK
notes: Whole murine monoclonal antibody from hybridoma; mouse IgG1 isotype controls were used beside it; also called m205A5; 205A5 Mab
For the molecule B1, the binding result is on record as “binds”.

B2: 227D3 monoclonal antibody (murine, secreted by hybridoma CNCM I-4247) (antibody, V domains shown)
VH: EVKLVESGGDLVKPGGSLQLSCAASGFTFSSYAMSWVRQTPEMRLEWVASIMGGGTTYYPDSVKGRFTISRDIARNILNLQMSSLRSEDTAIYYCARGRDYGIRSYAMDYWGQGTSVTVSS
VL: DIVMTQAAFSNPVTLGTSVSISCRSSKSLLHSNGITYLYWYLQKPGQSPQLLIYQMSNLASGVPDRFSSSGSGTDFTLRISRVEAEDVGVYYCAQNLELPYTFGGGTKLEIK
notes: Whole murine monoclonal antibody from hybridoma; mouse IgG1 isotype controls were used beside it; also called m227D3; 227D3 Mab
B2: the binding result is given as “binds”.
